The text below walks through data of PMC3423377 (2012).

The target of the experiment is ML/HLA-A2 pMHC, soluble recombinant (human | ). The experiment is described as follows: SPR. On the technique in general: Surface plasmon resonance follows binding to a sensor surface in real time, without labels.

B1: fML soluble recombinant Fab (Fab, V domains shown)
VH: EVQLVESGGGLVQPGGSLRLSCAASGFNFSYYSIHWVRQAPGKGLEWVASIYSSSSYTSYADSVKGRFTISADTSKNTAYLQMNSLRAEDTAVYYCARGYYGEWGMDYWGQGTLVTVSS
VL: DIQMTQSPSSLSASVGDRVTITCRASQSVSSAVAWYQQKPGKAPKLLIYSASSLYSGVPSRFSGSRSGTDFTLTISSLQPEDFATYYCQQWNAYPVTFGQGTKVEIK
One may read the koff as the first-order rate constant of dissociation. For the molecule B1, the koff worked out at 0.016 s⁻¹.
